Laboratory results published in patent publication US20240018502A1.

Target: plasma purified human complement protein C3 (human) (UniProt P01024)
Assay: cell-based or functional assay

Chain of plasma purified human complement protein C3 (human) (P01024 23-667, chain 1 of 2): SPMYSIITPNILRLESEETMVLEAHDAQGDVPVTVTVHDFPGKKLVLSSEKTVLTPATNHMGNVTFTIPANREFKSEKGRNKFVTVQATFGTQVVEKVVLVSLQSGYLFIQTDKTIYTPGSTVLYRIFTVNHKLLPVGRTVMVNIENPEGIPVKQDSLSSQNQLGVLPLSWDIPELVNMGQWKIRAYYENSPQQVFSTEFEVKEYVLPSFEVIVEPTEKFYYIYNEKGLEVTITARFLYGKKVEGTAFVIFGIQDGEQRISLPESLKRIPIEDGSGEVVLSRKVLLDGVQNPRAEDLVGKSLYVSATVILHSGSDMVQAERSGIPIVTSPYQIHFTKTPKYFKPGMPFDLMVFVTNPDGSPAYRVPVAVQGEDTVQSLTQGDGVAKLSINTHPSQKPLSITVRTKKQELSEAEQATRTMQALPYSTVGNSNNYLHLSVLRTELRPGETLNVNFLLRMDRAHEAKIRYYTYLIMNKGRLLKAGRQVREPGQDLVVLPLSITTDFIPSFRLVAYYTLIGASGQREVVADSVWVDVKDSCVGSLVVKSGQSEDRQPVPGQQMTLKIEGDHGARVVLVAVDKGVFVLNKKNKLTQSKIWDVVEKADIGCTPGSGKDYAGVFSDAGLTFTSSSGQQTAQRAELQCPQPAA
Chain of plasma purified human complement protein C3 (human) (P01024 672-1663, chain 2 of 2): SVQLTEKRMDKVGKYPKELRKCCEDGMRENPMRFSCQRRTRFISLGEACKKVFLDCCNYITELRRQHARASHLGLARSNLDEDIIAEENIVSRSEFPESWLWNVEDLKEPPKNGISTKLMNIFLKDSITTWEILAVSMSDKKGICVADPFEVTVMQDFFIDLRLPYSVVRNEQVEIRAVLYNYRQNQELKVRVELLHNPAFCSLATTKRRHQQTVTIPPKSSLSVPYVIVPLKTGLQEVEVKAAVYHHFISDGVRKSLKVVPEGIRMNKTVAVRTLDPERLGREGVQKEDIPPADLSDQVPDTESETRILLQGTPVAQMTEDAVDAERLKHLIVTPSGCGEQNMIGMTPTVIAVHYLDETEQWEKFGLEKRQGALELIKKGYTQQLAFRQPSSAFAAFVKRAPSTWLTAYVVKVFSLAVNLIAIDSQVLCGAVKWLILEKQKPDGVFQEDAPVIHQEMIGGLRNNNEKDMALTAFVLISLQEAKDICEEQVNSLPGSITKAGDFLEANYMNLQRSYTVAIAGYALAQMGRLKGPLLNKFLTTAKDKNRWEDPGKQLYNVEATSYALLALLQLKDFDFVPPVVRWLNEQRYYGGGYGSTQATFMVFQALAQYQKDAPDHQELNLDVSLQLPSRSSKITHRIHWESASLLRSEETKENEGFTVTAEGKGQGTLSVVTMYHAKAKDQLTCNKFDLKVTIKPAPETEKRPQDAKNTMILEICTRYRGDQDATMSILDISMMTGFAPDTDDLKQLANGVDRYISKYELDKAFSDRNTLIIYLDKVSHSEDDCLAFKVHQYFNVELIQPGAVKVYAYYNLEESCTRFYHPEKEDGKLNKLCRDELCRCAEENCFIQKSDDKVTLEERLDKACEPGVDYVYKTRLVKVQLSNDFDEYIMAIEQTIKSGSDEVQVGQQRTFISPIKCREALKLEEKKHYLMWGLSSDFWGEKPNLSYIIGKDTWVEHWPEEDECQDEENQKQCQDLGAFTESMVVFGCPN

Row | EC50 hC3 cleavage [nM] | EC50 of hC3 cleavage [nM] | Binder
1 | 35.1 | – | MTSP-1 protease domain Q38K/I41S/Y60gW/F99L/C122S/G151N/Q192G (enzyme) VVGGTDADEGEWPWQVSLHALGKGHSCGASLISPNWLVSAAHCYIDDRGFRWSDPTQWTAFLGLHDQSQRSAPGVQERRLKRIISHPFFNDFTLDYDIALLELEKPAEYSSMVRPISLPDASHVFPAGKAIWVTGWGHTQYGGTNALILQKGEIRVINQTTCENLLPQQITPRMMCVGFLSGGVDSCGGDSGGPLSSVEADGRIFQAGVVSWGDGCAQRNKPGVYTRLPLFRDWIKENTGV
2 | 45 | – | MTSP-1 protease domain I41E/C122S/G151N/Q175L/Q192A (enzyme) VVGGTDADEGEWPWQVSLHALGQGHECGASLISPNWLVSAAHCYIDDRGFRYSDPTQWTAFLGLHDQSQRSAPGVQERRLKRIISHPFFNDFTFDYDIALLELEKPAEYSSMVRPISLPDASHVFPAGKAIWVTGWGHTQYGGTNALILQKGEIRVINQTTCENLLPQLITPRMMCVGFLSGGVDSCAGDSGGPLSSVEADGRIFQAGVVSWGDGCAQRNKPGVYTRLPLFRDWIKENTGV
3 | 335 | – | MTSP-1 protease domain Q38K/I41R/Y60gG/F99L/C122S/G151N/Q192G (enzyme) VVGGTDADEGEWPWQVSLHALGKGHRCGASLISPNWLVSAAHCYIDDRGFRGSDPTQWTAFLGLHDQSQRSAPGVQERRLKRIISHPFFNDFTLDYDIALLELEKPAEYSSMVRPISLPDASHVFPAGKAIWVTGWGHTQYGGTNALILQKGEIRVINQTTCENLLPQQITPRMMCVGFLSGGVDSCGGDSGGPLSSVEADGRIFQAGVVSWGDGCAQRNKPGVYTRLPLFRDWIKENTGV
4 | 61 | – | MTSP-1 protease domain I41G/F99L/C122S/G151N/Q192A (enzyme) VVGGTDADEGEWPWQVSLHALGQGHGCGASLISPNWLVSAAHCYIDDRGFRYSDPTQWTAFLGLHDQSQRSAPGVQERRLKRIISHPFFNDFTLDYDIALLELEKPAEYSSMVRPISLPDASHVFPAGKAIWVTGWGHTQYGGTNALILQKGEIRVINQTTCENLLPQQITPRMMCVGFLSGGVDSCAGDSGGPLSSVEADGRIFQAGVVSWGDGCAQRNKPGVYTRLPLFRDWIKENTGV
5 | 28.5 | – | MTSP-1 protease domain I41E/F99L/C122S/G151N/Q175L/Q192A (enzyme) VVGGTDADEGEWPWQVSLHALGQGHECGASLISPNWLVSAAHCYIDDRGFRYSDPTQWTAFLGLHDQSQRSAPGVQERRLKRIISHPFFNDFTLDYDIALLELEKPAEYSSMVRPISLPDASHVFPAGKAIWVTGWGHTQYGGTNALILQKGEIRVINQTTCENLLPQLITPRMMCVGFLSGGVDSCAGDSGGPLSSVEADGRIFQAGVVSWGDGCAQRNKPGVYTRLPLFRDWIKENTGV
6 | 62 | – | MTSP-1 protease domain I41S/F99M/C122S/G151N/Q175L/Q192G (enzyme) VVGGTDADEGEWPWQVSLHALGQGHSCGASLISPNWLVSAAHCYIDDRGFRYSDPTQWTAFLGLHDQSQRSAPGVQERRLKRIISHPFFNDFTMDYDIALLELEKPAEYSSMVRPISLPDASHVFPAGKAIWVTGWGHTQYGGTNALILQKGEIRVINQTTCENLLPQLITPRMMCVGFLSGGVDSCGGDSGGPLSSVEADGRIFQAGVVSWGDGCAQRNKPGVYTRLPLFRDWIKENTGV
7 | 33.1 | – | MTSP-1 protease domain Q38F/I41S/Y60gA/C122S/G151N/Q192R (enzyme) VVGGTDADEGEWPWQVSLHALGFGHSCGASLISPNWLVSAAHCYIDDRGFRASDPTQWTAFLGLHDQSQRSAPGVQERRLKRIISHPFFNDFTFDYDIALLELEKPAEYSSMVRPISLPDASHVFPAGKAIWVTGWGHTQYGGTNALILQKGEIRVINQTTCENLLPQQITPRMMCVGFLSGGVDSCRGDSGGPLSSVEADGRIFQAGVVSWGDGCAQRNKPGVYTRLPLFRDWIKENTGV
8 | 35.8 | – | MTSP-1 protease domain I41S/F99L/C122S/G151N/Q175P/Q192V (enzyme) VVGGTDADEGEWPWQVSLHALGQGHSCGASLISPNWLVSAAHCYIDDRGFRYSDPTQWTAFLGLHDQSQRSAPGVQERRLKRIISHPFFNDFTLDYDIALLELEKPAEYSSMVRPISLPDASHVFPAGKAIWVTGWGHTQYGGTNALILQKGEIRVINQTTCENLLPQPITPRMMCVGFLSGGVDSCVGDSGGPLSSVEADGRIFQAGVVSWGDGCAQRNKPGVYTRLPLFRDWIKENTGV
9 | – | 56.7 | MTSP-1 I41D/Y59F/C122S/G151N/Q192T (enzyme) VVGGTDADEGEWPWQVSLHALGQGHDCGASLISPNWLVSAAHCFIDDRGFRYSDPTQWTAFLGLHDQSQRSAPGVQERRLKRIISHPFFNDFTFDYDIALLELEKPAEYSSMVRPISLPDASHVFPAGKAIWVTGWGHTQYGGTNALILQKGEIRVINQTTCENLLPQQITPRMMCVGFLSGGVDSCTGDSGGPLSSVEADGRIFQAGVVSWGDGCAQRNKPGVYTRLPLFRDWIKENTGV
10 | 116 | – | MTSP-1 protease domain Q38R/I41S/Y60gW/F99L/C122S/G151N/Q192E (enzyme) VVGGTDADEGEWPWQVSLHALGRGHSCGASLISPNWLVSAAHCYIDDRGFRWSDPTQWTAFLGLHDQSQRSAPGVQERRLKRIISHPFFNDFTLDYDIALLELEKPAEYSSMVRPISLPDASHVFPAGKAIWVTGWGHTQYGGTNALILQKGEIRVINQTTCENLLPQQITPRMMCVGFLSGGVDSCEGDSGGPLSSVEADGRIFQAGVVSWGDGCAQRNKPGVYTRLPLFRDWIKENTGV
11 | 95.3 | – | MTSP-1 protease domain I41S/F99M/C122S/G151N/Q175G/Q192R (enzyme) VVGGTDADEGEWPWQVSLHALGQGHSCGASLISPNWLVSAAHCYIDDRGFRYSDPTQWTAFLGLHDQSQRSAPGVQERRLKRIISHPFFNDFTMDYDIALLELEKPAEYSSMVRPISLPDASHVFPAGKAIWVTGWGHTQYGGTNALILQKGEIRVINQTTCENLLPQGITPRMMCVGFLSGGVDSCRGDSGGPLSSVEADGRIFQAGVVSWGDGCAQRNKPGVYTRLPLFRDWIKENTGV
12 | 102 | – | MTSP-1 protease domain I41E/F99L/C122S/G151N/Q175R/Q192H (enzyme) VVGGTDADEGEWPWQVSLHALGQGHECGASLISPNWLVSAAHCYIDDRGFRYSDPTQWTAFLGLHDQSQRSAPGVQERRLKRIISHPFFNDFTLDYDIALLELEKPAEYSSMVRPISLPDASHVFPAGKAIWVTGWGHTQYGGTNALILQKGEIRVINQTTCENLLPQRITPRMMCVGFLSGGVDSCHGDSGGPLSSVEADGRIFQAGVVSWGDGCAQRNKPGVYTRLPLFRDWIKENTGV
13 | 20.9 | – | MTSP-1 protease domain I41S/F99L/C122S/G151H/Q175L/Q192V (enzyme) VVGGTDADEGEWPWQVSLHALGQGHSCGASLISPNWLVSAAHCYIDDRGFRYSDPTQWTAFLGLHDQSQRSAPGVQERRLKRIISHPFFNDFTLDYDIALLELEKPAEYSSMVRPISLPDASHVFPAGKAIWVTGWGHTQYGGTHALILQKGEIRVINQTTCENLLPQLITPRMMCVGFLSGGVDSCVGDSGGPLSSVEADGRIFQAGVVSWGDGCAQRNKPGVYTRLPLFRDWIKENTGV
14 | 248 | – | MTSP-1 protease domain Q38R/I41R/F99L/C122S/G151N/Q192G (enzyme) VVGGTDADEGEWPWQVSLHALGRGHRCGASLISPNWLVSAAHCYIDDRGFRYSDPTQWTAFLGLHDQSQRSAPGVQERRLKRIISHPFFNDFTLDYDIALLELEKPAEYSSMVRPISLPDASHVFPAGKAIWVTGWGHTQYGGTNALILQKGEIRVINQTTCENLLPQQITPRMMCVGFLSGGVDSCGGDSGGPLSSVEADGRIFQAGVVSWGDGCAQRNKPGVYTRLPLFRDWIKENTGV
15 | 30.2 | – | MTSP-1 protease domain I41E/F99L/C122S/G151N/Q175G/Q192T (enzyme) VVGGTDADEGEWPWQVSLHALGQGHECGASLISPNWLVSAAHCYIDDRGFRYSDPTQWTAFLGLHDQSQRSAPGVQERRLKRIISHPFFNDFTLDYDIALLELEKPAEYSSMVRPISLPDASHVFPAGKAIWVTGWGHTQYGGTNALILQKGEIRVINQTTCENLLPQGITPRMMCVGFLSGGVDSCTGDSGGPLSSVEADGRIFQAGVVSWGDGCAQRNKPGVYTRLPLFRDWIKENTGV
16 | 112 | – | MTSP-1 protease domain I41E/F99L/C122S/G151N/Q192S (enzyme) VVGGTDADEGEWPWQVSLHALGQGHECGASLISPNWLVSAAHCYIDDRGFRYSDPTQWTAFLGLHDQSQRSAPGVQERRLKRIISHPFFNDFTLDYDIALLELEKPAEYSSMVRPISLPDASHVFPAGKAIWVTGWGHTQYGGTNALILQKGEIRVINQTTCENLLPQQITPRMMCVGFLSGGVDSCSGDSGGPLSSVEADGRIFQAGVVSWGDGCAQRNKPGVYTRLPLFRDWIKENTGV
17 | 388 | – | MTSP-1 protease domain Q38R/I41R/Y60gL/F99L/C122S/G151N/Q192G (enzyme) VVGGTDADEGEWPWQVSLHALGRGHRCGASLISPNWLVSAAHCYIDDRGFRLSDPTQWTAFLGLHDQSQRSAPGVQERRLKRIISHPFFNDFTLDYDIALLELEKPAEYSSMVRPISLPDASHVFPAGKAIWVTGWGHTQYGGTNALILQKGEIRVINQTTCENLLPQQITPRMMCVGFLSGGVDSCGGDSGGPLSSVEADGRIFQAGVVSWGDGCAQRNKPGVYTRLPLFRDWIKENTGV
18 | 297 | – | MTSP-1 protease domain I41S/F99M/C122S/G151N/Q175E/Q192R (enzyme) VVGGTDADEGEWPWQVSLHALGQGHSCGASLISPNWLVSAAHCYIDDRGFRYSDPTQWTAFLGLHDQSQRSAPGVQERRLKRIISHPFFNDFTMDYDIALLELEKPAEYSSMVRPISLPDASHVFPAGKAIWVTGWGHTQYGGTNALILQKGEIRVINQTTCENLLPQEITPRMMCVGFLSGGVDSCRGDSGGPLSSVEADGRIFQAGVVSWGDGCAQRNKPGVYTRLPLFRDWIKENTGV
19 | 134 | – | MTSP-1 protease domain I41S/C122S/G151N/Q175R/Q192R (enzyme) VVGGTDADEGEWPWQVSLHALGQGHSCGASLISPNWLVSAAHCYIDDRGFRYSDPTQWTAFLGLHDQSQRSAPGVQERRLKRIISHPFFNDFTFDYDIALLELEKPAEYSSMVRPISLPDASHVFPAGKAIWVTGWGHTQYGGTNALILQKGEIRVINQTTCENLLPQRITPRMMCVGFLSGGVDSCRGDSGGPLSSVEADGRIFQAGVVSWGDGCAQRNKPGVYTRLPLFRDWIKENTGV
20 | 156 | – | MTSP-1 protease domain I41E/F99L/C122S/G151N/Q192V (enzyme) VVGGTDADEGEWPWQVSLHALGQGHECGASLISPNWLVSAAHCYIDDRGFRYSDPTQWTAFLGLHDQSQRSAPGVQERRLKRIISHPFFNDFTLDYDIALLELEKPAEYSSMVRPISLPDASHVFPAGKAIWVTGWGHTQYGGTNALILQKGEIRVINQTTCENLLPQQITPRMMCVGFLSGGVDSCVGDSGGPLSSVEADGRIFQAGVVSWGDGCAQRNKPGVYTRLPLFRDWIKENTGV
21 | – | 54.9 | MTSP-1 I41D/Y59F/D96E/F99L/C122S/G151N/Q192T (enzyme) VVGGTDADEGEWPWQVSLHALGQGHDCGASLISPNWLVSAAHCFIDDRGFRYSDPTQWTAFLGLHDQSQRSAPGVQERRLKRIISHPFFNEFTLDYDIALLELEKPAEYSSMVRPISLPDASHVFPAGKAIWVTGWGHTQYGGTNALILQKGEIRVINQTTCENLLPQQITPRMMCVGFLSGGVDSCTGDSGGPLSSVEADGRIFQAGVVSWGDGCAQRNKPGVYTRLPLFRDWIKENTGV
